# Source: paper PMC13676896 (2026)
# B1: CCT8 (protein)
# chain: ALHVPKAPGFAQMLKEGAKHFSGLEEAVYRNIQACKELAQTTRTAYGPNGMNKMVINHLEKLFVTNDAATILRELEVQHPAAKMIVMASHMQEQEVGDGTNFVLVFAGALLELAEELLRIGLSVSEVIEGYEIACRKAHEILPNLVCCSAKNLRDIDEVSSLLRTSIMSKQYGNEVFLAKLIAQACVSIFPDSGHFNVDNIRVCKILGSGISSSSVLHGMVFKKETEGDVTSVKDAKIAVYSCPFDGMITETKGTVLIKTAEELMNFSKGEENLMDAQVKAIADTGANVVVTGGKVADMALHYANKYNIMLVRLNSKWDLRRLCKTVGATALPRLTPPVLEEMGHCDSVYLSEVGDTQVVVFKHEKEDGAISTIVLRGSTDNLMDDIERAVDDGVNTFKVLTRDKRLVPGGGATEIELAKQITSYGETCPGLEQYAIKKFAEAFEAIPRALAENSGVKANEVISKLYAVHQEGNKNVGLDIEAEVPAVKDMLEAGILDTYLGKYWAIKLATNAAVTVLRVDQIIMAKPAGGPKPPSGKKDWDDDQND
# Target: T1, MYO10 motor domain 1-741 (Homo sapiens, UniProt Q9HD67)
# T1 chain: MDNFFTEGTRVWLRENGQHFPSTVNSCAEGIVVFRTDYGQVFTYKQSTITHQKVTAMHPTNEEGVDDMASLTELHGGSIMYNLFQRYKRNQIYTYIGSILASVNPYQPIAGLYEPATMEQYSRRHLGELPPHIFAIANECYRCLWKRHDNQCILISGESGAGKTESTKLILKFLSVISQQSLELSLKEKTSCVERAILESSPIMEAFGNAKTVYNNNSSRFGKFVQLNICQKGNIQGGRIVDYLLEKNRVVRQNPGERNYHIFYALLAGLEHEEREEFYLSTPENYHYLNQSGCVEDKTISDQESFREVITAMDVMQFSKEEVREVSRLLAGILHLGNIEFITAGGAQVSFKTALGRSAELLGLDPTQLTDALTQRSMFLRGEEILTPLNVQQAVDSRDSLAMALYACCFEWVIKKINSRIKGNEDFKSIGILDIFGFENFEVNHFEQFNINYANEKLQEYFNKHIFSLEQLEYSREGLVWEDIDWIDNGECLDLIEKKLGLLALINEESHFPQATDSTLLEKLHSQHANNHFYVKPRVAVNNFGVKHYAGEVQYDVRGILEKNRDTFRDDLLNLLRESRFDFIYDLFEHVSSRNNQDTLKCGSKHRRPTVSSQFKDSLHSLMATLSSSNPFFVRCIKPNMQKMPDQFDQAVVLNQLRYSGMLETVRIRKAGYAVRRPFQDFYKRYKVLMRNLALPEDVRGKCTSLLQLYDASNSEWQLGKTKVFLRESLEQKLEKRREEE
# Experiment: MST
binder,measurement,value
B1,Kd,1160 nM
